According to IntAct's records for PubMed 30559186:

target: bi1_human TMBIM6 (UniProt P55061)
Sequence (P55061 whole entry): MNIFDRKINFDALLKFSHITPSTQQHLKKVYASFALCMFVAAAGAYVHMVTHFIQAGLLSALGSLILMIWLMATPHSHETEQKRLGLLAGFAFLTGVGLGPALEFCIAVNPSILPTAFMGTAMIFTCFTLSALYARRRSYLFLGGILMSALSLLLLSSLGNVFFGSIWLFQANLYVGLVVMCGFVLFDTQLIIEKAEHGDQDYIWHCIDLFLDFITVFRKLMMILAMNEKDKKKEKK

Substance | effect of a mutation on the interaction
Presenilin-1 (Homo sapiens) (from UniProt P49768) I143V | with no effect
Presenilin-1 (Homo sapiens) (from UniProt P49768) P284S | with no effect
Presenilin-1 (Homo sapiens) (from UniProt P49768) S169P | with no effect
Presenilin-1 (Homo sapiens) (from UniProt P49768) L381V | with no effect

Second part, the substance after the results:

effect of a mutation on the interaction | Substance
with no effect | Presenilin-1 (Homo sapiens) (from UniProt P49768) I439V
with no effect | Presenilin-1 (Homo sapiens) (from UniProt P49768) M233L
with no effect | Presenilin-1 (Homo sapiens) (from UniProt P49768) V272A
